Like-named read-outs stand apart in the source and are kept apart here.

Test [1] has as its target T1, human TIGIT protein expressed on cells (CHOK1-TIGIT) (human, UniProt Q495A1 22-244).
T1 construct: whole, on cells; also called CHOK1-TIGIT cells
T1 sequence (looked up): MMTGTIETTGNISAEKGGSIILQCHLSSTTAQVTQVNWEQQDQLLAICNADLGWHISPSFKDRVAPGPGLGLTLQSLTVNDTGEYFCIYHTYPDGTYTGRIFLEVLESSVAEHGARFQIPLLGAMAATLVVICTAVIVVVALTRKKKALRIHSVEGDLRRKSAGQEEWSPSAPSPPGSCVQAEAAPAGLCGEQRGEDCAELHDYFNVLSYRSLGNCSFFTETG
The test can be described thus: flow cytometry on CHOK1-TIGIT cells.

In test [2] the target is T2, human TIGIT (Acro Biosystems Cat#TIT-H52H5) (human, UniProt Q495A1 22-141).
T2 construct: Soluble bought protein; also called TIGIT protein; human TIGIT antigen
T2 sequence (looked up): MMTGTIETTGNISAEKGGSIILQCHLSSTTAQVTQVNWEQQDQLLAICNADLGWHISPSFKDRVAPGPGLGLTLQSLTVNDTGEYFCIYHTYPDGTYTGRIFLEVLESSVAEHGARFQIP
The test can be described thus: SPR (Biacore 8K), antibody captured on Protein A chip, antigen as analyte, 1:1 binding.

Test [3] deals with T2, human TIGIT (Acro Biosystems …). The experiment in a line: SPR (Biacore 8K), antigen captured by anti-His antibody on CM5 chip, antibody as analyte, 1:1 binding.
Test [4] concerns the target T1, human TIGIT protein expressed on cells …. The test can be described thus: flow cytometry, blocking of CHOK1-TIGIT cells binding to CHOK1-CD155 cells (competitor: CD155 on cells).
Test [5] deals with T3, human CTLA4 protein expressed on cells (CHOK1-CTLA4, HEK293-CTLA4) (human, UniProt P16410 36-223).
T3 construct: whole, on cells; also called CHOK1-CTLA4 cells; HEK293-CTLA4 single-positive cells
T3 sequence (looked up): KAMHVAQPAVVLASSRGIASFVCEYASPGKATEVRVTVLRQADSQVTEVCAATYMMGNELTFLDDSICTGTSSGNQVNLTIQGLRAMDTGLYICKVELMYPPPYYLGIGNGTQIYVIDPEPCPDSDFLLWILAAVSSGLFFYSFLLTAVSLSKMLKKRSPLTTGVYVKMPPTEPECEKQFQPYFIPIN
The experiment in a line: flow cytometry on CHOK1-CTLA4 cells.

Test [6] deals with T3, human CTLA4 protein expressed on cells …. The experiment in a line: flow cytometry, blocking of CHOK1-CTLA4 cells binding to CHOK1-CD80 cells (competitor: CD80 on cells).
Test [7] has the same target. The test can be described thus: flow cytometry on CHOK1-CTLA4 cells. The source holds these as a separate data set.

B1: anti-CTLA4/TIGIT antibody As-3 (bispecific antibody, human IgG1, kappa)
heavy 1: QVQLVESGGGVVQPGRSLRLSCAASGFTFSSYTMHWVRQAPGKGLEWVTFISYDGNNKYYADSVKGRFTISRDNSKNTLYLQMNSLRAEDTAIYYCARTGWLGPFDYWGQGTLVTVSSGGGGSSGAPRFLTRPKASVVSVGKDATLSCQIVGNPFPQVSWEKDKQPVTAGVRFRLAQDGDLYRLKILDLQLSDSGQYVCRARNAHGEAFACLGLQVDAEADKTHTCPPCPAPELLGGPDVFLFPPKPKDTLMISRTPEVTCVVVDVSHEDPEVKFNWYVDGVEVHNAKTKPREEQYNSTYRVVSVLTVLHQDWLNGKEYKCKVSNKALPLPEEKTISKAKGQPREPQVYTLPPCREEMTKNQVSLWCLVKGFYPSDIAVEWESNGQPENNYKTTPPVLDSDGSFFLYSKLTVDKSRWQQGNVFSCSVMHEALHNHYTQKSLSLSPGK
light 1: not shown
heavy 2: EVQLVQSGAEVKKPGASVKVSCKASGYTFTNYWMHWVRQAPGQGLEWMGRIDPDSTGSKYNEKFKTRVTMTRDTSTSTVYMELSSLRSEDTAVYYCAREGAYGYYFDYWGQGTLVTVSSASTKGPSVFPLAPSSKSTSGGTAALGCLVKDYFPEPVTVSWNSGALTSGVHTFPAVLQSSGLYSLSSVVTVPSSSLGTQTYICNVNHKPSNTKVDKKVEPKSCDKTHTCPPCPAPELLGGPDVFLFPPKPKDTLMISRTPEVTCVVVDVSHEDPEVKFNWYVDGVEVHNAKTKPREEQYNSTYRVVSVLTVLHQDWLNGKEYKCKVSNKALPLPEEKTISKAKGQPREPQVCTLPPSREEMTKNQVSLSCAVKGFYPSDIAVEWESNGQPENNYKTTPPVLDSDGSFFLVSKLTVDKSRWQQGNVFSCSVMHEALHNHYTQKSLSLSPGK
light 2: DIQMTQSPSSLSASVGDRVTITCRASENIYSYLAWYQQKPGKSPKLLIYNARTLAEGVPSRFSGSGSGTDFTLTISSLQPEDFATYYCQYHSGSPLPFGGGTKVEIKRTVAAPSVFIFPPSDEQLKSGTASVVCLLNNFYPREAKVQWKVDNALQSGNSQESVTEQDSKDSTYSLSSTLTLSKADYEKHKVYACEVTHQGLSSPVTKSFNRGEC
B1 gave an EC50 in test [1] of 0.72 nM. In test [2], this molecule had a Kd of 0.0411 nM, a koff of 7.13e-05 s⁻¹ and a kon of 1.73e+06 M⁻¹ s⁻¹. In test [3], the Kd was determined as 0.535 nM, the koff turned out to be 0.00052 s⁻¹ and the kon was 972000 M⁻¹ s⁻¹. In test [4], this molecule returned an IC50 of 1.44 nM.

B2: anti-CTLA4/TIGIT antibody S-15 (bispecific antibody)
heavy: EVQLVQSGAEVKKPGASVKVSCKASGYTFTNYWMHWVRQAPGQGLEWMGRIDPDSTGSKYNEKFKTRVTMTRDTSTSTVYMELSSLRSEDTAVYYCAREGAYGYYFDYWGQGTLVTVSSASTKGPSVFPLAPSSKSTSGGTAALGCLVKDYFPEPVTVSWNSGALTSGVHTFPAVLQSSGLYSLSSVVTVPSSSLGTQTYICNVNHKPSNTKVDKKVEPKSCDGGGGSGGGGSGGGGSQVQLVESGGGVVQPGRSLRLSCAASGFTFSSYGMHWVRQAPGKGLEWVAVIWYDGSNKYYADSVKGRFTISRDNSKNTLYLQMNSLRAEDTAVYYCARDPRGATLYYYYYGMDVWGQGTTVTVSSGGGGSSGAPRFLTRPKASVVSVGKDATLSCQIVGNPFPQVSWEKDKQPVTAGVRFRLAQDGDLYRLKILDLQLSDSGQYVCRARNAHGEAFACLGLQVDAEADKTHTCPPCPAPELLGGPDVFLFPPKPKDTLMISRTPEVTCVVVDVSHEDPEVKFNWYVDGVEVHNAKTKPREEQYNSTYRVVSVLTVLHQDWLNGKEYKCKVSNKALPLPEEKTISKAKGQPREPQVYTLPPSREEMTKNQVSLTCLVKGFYPSDIAVEWESNGQPENNYKTTPPVLDSDGSFFLYSKLTVDKSRWQQGNVFSCSVMHEALHNHYTQKSLSLSPGK
light 1: DIQMTQSPSSLSASVGDRVTITCRASENIYSYLAWYQQKPGKSPKLLIYNARTLAEGVPSRFSGSGSGTDFTLTISSLQPEDFATYYCQYHSGSPLPFGGGTKVEIKRTVAAPSVFIFPPSDEQLKSGTASVVCLLNNFYPREAKVQWKVDNALQSGNSQESVTEQDSKDSTYSLSSTLTLSKADYEKHKVYACEVTHQGLSSPVTKSFNRGEC
light 2: DIQMTQSPSSLSASVGDRVTITCRASQSINSYLDWYQQKPGKAPKLLIYAASSLQSGVPSRFSGSGSGTDFTLTISSLQPEDFATYYCQQYYSTPFTFGPGTKVEIKGGGGSGIPPKIECLPIDISIDEGKVLTVASAFTGEPTPEVTWSTGGRKIHSQEQGRFHIENTDDSTTLTIKDVQKQDGGLYTLTLRNEFGSDSATVNIHIRSI
notes: Symmetric bispecific antibody with one kind of heavy chain and two kinds of light chain
On to B2, for which the EC50 in test [5] is 3.35 nM; in test [1], 0.43 nM. For the same molecule, the IC50 came out at 1.42 nM in test [6] and 0.42 nM in test [4].

B3: Anti-TIGIT antibody RG6058 (antibody, V domains shown)
VH: EVQLQQSGPGLVKPSQTLSLTCAISGDSVSSNSAAWNWIRQSPSRGLEWLGKTYYRFKWYSDYAVSVKGRITINPDTSKNQFSLQLNSVTPEDTAVFYCTRESTTYDLLAGPFDYWGQGTLVTVSS
VL: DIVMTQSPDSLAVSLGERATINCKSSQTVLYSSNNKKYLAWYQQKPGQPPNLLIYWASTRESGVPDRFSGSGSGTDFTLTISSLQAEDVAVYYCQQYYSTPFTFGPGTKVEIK
B3 gave an EC50 in test [1] of 0.48 nM. Besides, the IC50 in test [4] was determined as 0.67 nM.

B4: Anti-CTLA4 antibody Tre (antibody, V domains shown)
VH: QVQLVESGGGVVQPGRSLRLSCAASGFTFSSYGMHWVRQAPGKGLEWVAVIWYDGSNKYYADSVKGRFTISRDNSKNTLYLQMNSLRAEDTAVYYCARDPRGATLYYYYYGMDVWGQGTTVTVSS
VL: DIQMTQSPSSLSASVGDRVTITCRASQSINSYLDWYQQKPGKAPKLLIYAASSLQSGVPSRFSGSGSGTDFTLTISSLQPEDFATYYCQQYYSTPFTFGPGTKVEIK
Consider B4, for which the EC50 in test [7] came to 1.27 nM; in test [5], 0.53 nM. In addition, the IC50 in test [6] was 0.49 nM.

The values above are taken from EP4772539A1 (Jiangsu Hengrui Pharmaceuticals Co., Ltd., dated 2026).
